Results published in paper PMC7515630, “Optogenetic activation of heterotrimeric G-proteins by LOV2GIVe, a rationally engineered modular protein” (eLife, 2020).

Target: T1, GST-LOV2GIV (L) (Avena sativa | , FMN chromophore. GST omitted. The exact sequence and junction are in Supplementary file 1, so limits are by convention: AsLOV2 404-546 and the UniProt GBA motif. The paper's GIV numbering is the displ)
T1 chain: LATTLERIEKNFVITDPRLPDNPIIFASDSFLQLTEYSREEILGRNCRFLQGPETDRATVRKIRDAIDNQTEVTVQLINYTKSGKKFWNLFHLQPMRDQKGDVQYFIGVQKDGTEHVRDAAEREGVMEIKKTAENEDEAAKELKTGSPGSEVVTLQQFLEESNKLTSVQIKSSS
Test: pull-down; ~20 µg purified GST-fused construct on glutathione-agarose beads, 3 µg (~300 nM) purified His-tagged Gα; 4 hr at 4°C in 50 mM Tris-HCl pH 7.4, 100 mM NaCl, 0.4% NP-40, 10 mM MgCl2, 5 mM EDTA, 1 mM DTT, 30 µM GDP; immunoblot for His
Conditions: both partners purified

fold binding over the dark conformation, LOV2GIV (D): ~3 fold
B1: His-Gαi3 (rat) (natural protein, UniProt P08753 1-354, looked up)
chain: MGCTLSAEDKAAVERSKMIDRNLREDGEKAAKEVKLLLLGAGESGKSTIVKQMKIIHEDGYSEDECKQYKVVVYSNTIQSIIAIIRAMGRLKIDFGEAARADDARQLFVLAGSAEEGVMTSELAGVIKRLWRDGGVQACFSRSREYQLNDSASYYLNDLDRISQTNYIPTQQDVLRTRVKTTGIVETHFTFKELYFKMFDVGGQRSERKKWIHCFEGVTAIIFCVALSDYDLVLAEDEEMNRMHESMKLFDSICNNKWFTDTSIILFLNKKDLFEEKIKRSPLTICYPEYTGSNTYEEAAAYIQCQFEDLNRRKDTKEVYTHFTCATDTKNVQFVFDAVTDVIIKNNLKECGLY
notes: rat Gαi3, G-protein alpha subunit i3; kept with GDP in the buffers; also called pET28b-Gαi3; source: E. coli BL21(DE3), purified (HisPur cobalt resin, desalting)
